Experimental data reported in US20230293647A1 (AUTOLUS, published 2023).

Legend:
Test in all cases: cell microarray
CD86 (cell microarray) = biological target: T1, CD86 (cell microarray) (human, UniProt P42081 24-329)
T1 sequence (looked up): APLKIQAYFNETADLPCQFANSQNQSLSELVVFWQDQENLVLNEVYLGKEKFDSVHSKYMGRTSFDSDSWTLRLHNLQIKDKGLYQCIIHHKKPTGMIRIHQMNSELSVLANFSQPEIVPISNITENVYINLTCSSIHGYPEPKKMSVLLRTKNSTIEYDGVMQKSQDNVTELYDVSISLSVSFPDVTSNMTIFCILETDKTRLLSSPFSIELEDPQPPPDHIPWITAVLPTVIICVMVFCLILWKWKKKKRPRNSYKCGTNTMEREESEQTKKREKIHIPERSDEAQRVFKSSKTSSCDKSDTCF

TTYH3 V1 = biological target: T2, TTYH3 V1 (human, UniProt Q9C0H2)
T2 sequence (looked up): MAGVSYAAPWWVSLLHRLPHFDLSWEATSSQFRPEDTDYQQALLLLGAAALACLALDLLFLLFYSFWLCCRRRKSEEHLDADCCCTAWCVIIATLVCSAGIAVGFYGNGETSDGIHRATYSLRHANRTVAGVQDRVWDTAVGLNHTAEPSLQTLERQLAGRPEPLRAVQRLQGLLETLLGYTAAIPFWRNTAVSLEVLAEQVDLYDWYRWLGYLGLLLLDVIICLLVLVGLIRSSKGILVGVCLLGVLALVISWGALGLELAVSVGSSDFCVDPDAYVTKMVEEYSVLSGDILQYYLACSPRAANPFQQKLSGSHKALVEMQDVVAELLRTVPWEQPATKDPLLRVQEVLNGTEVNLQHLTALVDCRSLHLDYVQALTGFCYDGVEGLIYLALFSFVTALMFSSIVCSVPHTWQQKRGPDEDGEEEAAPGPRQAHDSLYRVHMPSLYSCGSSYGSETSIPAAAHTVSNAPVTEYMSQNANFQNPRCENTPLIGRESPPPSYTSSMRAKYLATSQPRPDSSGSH

SIGLEC15 = biological target: T3, SIGLEC15 (human, UniProt Q6ZMC9)
T3 sequence (looked up): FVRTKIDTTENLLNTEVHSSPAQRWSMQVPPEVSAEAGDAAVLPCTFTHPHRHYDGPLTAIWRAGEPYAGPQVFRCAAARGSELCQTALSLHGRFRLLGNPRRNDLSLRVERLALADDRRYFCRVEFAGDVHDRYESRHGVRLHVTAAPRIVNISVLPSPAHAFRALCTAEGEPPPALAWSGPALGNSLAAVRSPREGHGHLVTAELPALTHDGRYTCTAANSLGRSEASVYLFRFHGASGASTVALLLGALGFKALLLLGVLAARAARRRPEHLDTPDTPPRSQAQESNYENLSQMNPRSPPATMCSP

FcγRIa (cell microarray) = FcγRIa (cell microarray) (human, UniProt P12314 16-374)
IGF1 = IGF1 (human, UniProt P05019)
KCNAB2 = biological target: T4, KCNAB2 (human, UniProt Q13303)
T4 sequence (looked up): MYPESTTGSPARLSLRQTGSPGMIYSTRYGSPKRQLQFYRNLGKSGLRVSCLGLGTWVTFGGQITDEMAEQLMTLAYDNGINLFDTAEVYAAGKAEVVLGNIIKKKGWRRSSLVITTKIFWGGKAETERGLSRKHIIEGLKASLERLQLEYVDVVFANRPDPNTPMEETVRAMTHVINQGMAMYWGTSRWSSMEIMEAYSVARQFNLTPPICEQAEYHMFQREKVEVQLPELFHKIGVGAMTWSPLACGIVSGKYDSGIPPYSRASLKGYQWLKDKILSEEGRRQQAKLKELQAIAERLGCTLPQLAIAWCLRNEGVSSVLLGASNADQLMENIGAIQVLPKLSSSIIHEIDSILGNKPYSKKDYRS

CXCL12 = CXCL12 (human, UniProt P48061)

Measured: binding result

Sequence of FcγRIa (cell microarray) (P12314 16-374): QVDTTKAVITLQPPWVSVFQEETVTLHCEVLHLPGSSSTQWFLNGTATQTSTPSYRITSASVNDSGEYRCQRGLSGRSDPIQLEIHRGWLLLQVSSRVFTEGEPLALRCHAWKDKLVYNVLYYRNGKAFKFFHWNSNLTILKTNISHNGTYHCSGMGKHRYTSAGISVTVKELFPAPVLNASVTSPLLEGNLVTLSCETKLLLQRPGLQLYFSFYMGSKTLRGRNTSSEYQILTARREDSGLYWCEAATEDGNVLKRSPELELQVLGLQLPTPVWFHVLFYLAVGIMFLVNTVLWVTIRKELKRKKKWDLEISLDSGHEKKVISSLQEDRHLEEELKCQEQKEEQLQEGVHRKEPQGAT
Sequence of CXCL12 (P48061 22-89 limits assumed): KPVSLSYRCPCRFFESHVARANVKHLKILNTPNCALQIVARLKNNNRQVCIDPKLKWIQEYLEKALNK

B1: Fc LALA-PG only construct with the ACE2 domain omitted (other)
chain: EPKSCDKTHTCPPCPAPEAAGGPSVFLFPPKPKDTLMISRTPEVTCVVVDVSHEDPEVKFNWYVDGVEVHNAKTKPREEQYNSTYRVVSVLTVLHQDWLNGKEYKCKVSNKALGAPIEKTISKAKGQPREPQVYTLPPSREEMTKNQVSLTCLVKGFYPSDIAVEWESNGQPENNYKTTPPVLDSDGSFFLYSKLTVDKSRWQQGNVFSCSVMHEALHNHYTQKSLSLSPGK
notes: also called control Fc (LALA-PG)
no binding: CD86 (cell microarray) | TTYH3 V1 | SIGLEC15 | FcγRIa (cell microarray) | IGF1 | KCNAB2 | CXCL12
